In patent US20220249685A1 (SILVERBACK THERAPEUTICS, published 2022):

Assays:
[1] = biological target: T1, human MSLN expressed on tumor cell lines (OVCAR3, NCI-N87) or on transfected HEK-293 cells (human, UniProt Q13421 296-598); test: flow cytometry on NCI-N87 cells, anti-huIgG1-PE, MFI (Geo Mean)
T1 construct: whole, on cells; also called human mesothelin

[2] = biological target: T2, cynomolgus MSLN on transfected 293 cells (cynomolgus); test: flow cytometry on 293 cells transiently transfected with cyno MSLN, anti-huIgG1-PE, MFI (Geo Mean)
T2 construct: whole, on cells; also called cyno MSLN; cynomolgus mesothelin

T1 sequence (Q13421 other isoform, or with tags, fused parts or gaps limits assumed): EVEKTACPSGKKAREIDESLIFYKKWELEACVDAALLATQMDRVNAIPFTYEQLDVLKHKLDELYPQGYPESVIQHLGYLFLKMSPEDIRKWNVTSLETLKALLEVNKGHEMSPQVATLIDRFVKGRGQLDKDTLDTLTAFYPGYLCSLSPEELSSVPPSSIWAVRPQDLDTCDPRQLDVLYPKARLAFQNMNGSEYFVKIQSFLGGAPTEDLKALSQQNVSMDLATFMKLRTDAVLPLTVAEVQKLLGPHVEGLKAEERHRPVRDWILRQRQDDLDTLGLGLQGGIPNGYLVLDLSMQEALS

Row | Binder | EC50 (read off the curve) [1] [nM] | EC50 (read off the curve) [2] [nM]
1 | Antibody 55 (VH1-e G27Y, G55A, R66K, V67A, A71V / VKIII-L6) (antibody, V domains shown) VH: QVQLVQSGAEVKKPGSSVKVSCKASGYTFSGYTMNWVRQAPGQGLEWMGLITPYNAASSYNQKFRGKATITVDKSTSTAYMELSSLRSEDTAVYYCARGGYDGRGFDYWGQGTTVTVSS VL: EIVLTQSPATLSLSPGERATLSCSASSSVSYMHWYQQKPGQAPRLLIYDTSKLASGIPARFSGSGSGTDFTLTISSLEPEDFAVYYCQQWSKHPLTFGGGTKVEIK | ~0.1 | ~0.08
2 | 55-IgG1-TLR8 conjugate (antibody, V domains shown, cysteines freed by TCEP reduction may carry the drug-linker; positions not given; cysteines freed by TCEP reduction carry the TLR8 agonist drug-linker; positions not given, also called 55-TLR8) VH: QVQLVQSGAEVKKPGSSVKVSCKASGYTFSGYTMNWVRQAPGQGLEWMGLITPYNAASSYNQKFRGKATITVDKSTSTAYMELSSLRSEDTAVYYCARGGYDGRGFDYWGQGTTVTVSS VL: EIVLTQSPATLSLSPGERATLSCSASSSVSYMHWYQQKPGQAPRLLIYDTSKLASGIPARFSGSGSGTDFTLTISSLEPEDFAVYYCQQWSKHPLTFGGGTKVEIK | ~0.2 | ~0.1
3 | 56-IgG1-TLR8 conjugate (antibody, V domains shown, cysteines freed by TCEP reduction may carry the drug-linker; positions not given; cysteines freed by TCEP reduction carry the TLR8 agonist drug-linker; positions not given, also called 56-TLR8) VH: QVQLVQSGAEVKKPGSSVKVSCKASGGTFSGYTMNWVRQAPGQGLEWMGLITPYNAASSYNQKFRGRVTITADKSTSTAYMELSSLRSEDTAVYYCARGGYDGRGFDYWGQGTTVTVSS VL: DIQMTQSPSTLSASVGDRVTITCSASSSVSYMHWYQQKPGKAPKLLIYDTSKLASGVPSRFSGSGSGTEFTLTISSLQPDDFATYYCQQWSKHPLTFGGGTKVEIK | ~0.3 | ~0.2
4 | Antibody 56 (VH1-e CDRgraft G55A / VKI-L12) (antibody, V domains shown) VH: QVQLVQSGAEVKKPGSSVKVSCKASGGTFSGYTMNWVRQAPGQGLEWMGLITPYNAASSYNQKFRGRVTITADKSTSTAYMELSSLRSEDTAVYYCARGGYDGRGFDYWGQGTTVTVSS VL: DIQMTQSPSTLSASVGDRVTITCSASSSVSYMHWYQQKPGKAPKLLIYDTSKLASGVPSRFSGSGSGTEFTLTISSLQPDDFATYYCQQWSKHPLTFGGGTKVEIK | ~0.2 | ~0.1
